This is an account of results in paper PMC314469, “Protein Interaction Networks by Proteome Peptide Scanning” (PLoS Biology, 2004).

What all share (assay): SPOT array
The target of assay [1] is T1, Rvs167 SH3 (RV167_YEAST), P39743.
T1 chain: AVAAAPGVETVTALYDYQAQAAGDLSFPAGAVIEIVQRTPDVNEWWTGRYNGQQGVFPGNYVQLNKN

Assay [2] deals with T2, Yhr016c SH3 (YSC84_YEAST), P32793.
T2 chain: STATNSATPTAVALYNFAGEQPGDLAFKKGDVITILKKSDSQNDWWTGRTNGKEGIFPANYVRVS

Assay [3] has as its target T3, Yfr024 SH3 (LSB3_YEAST), P43603.
T3 chain: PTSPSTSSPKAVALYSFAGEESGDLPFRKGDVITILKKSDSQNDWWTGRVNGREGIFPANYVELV

The target in assay [4] is T4, Boi1 SH3 (BOI1_YEAST), P38041.
T4 chain: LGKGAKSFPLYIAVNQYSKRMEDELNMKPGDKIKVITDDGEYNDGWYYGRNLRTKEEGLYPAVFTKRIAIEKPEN

Assay [5] concerns the target T5, Boi2 SH3 (BOI2_YEAST), P39969.
T5 chain: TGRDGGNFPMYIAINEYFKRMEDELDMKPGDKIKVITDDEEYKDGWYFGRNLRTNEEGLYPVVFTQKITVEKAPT

B1: YOR273C 415-428 (peptide)
chain: ELLPVVPEKFLIAS
As to B1, the normalised SPOT signal, Boehringer light units (BLU); mean over the file's lines of this peptide in assay [1] stood at 15.1; in assay [2], 149; in assay [3], 13.7; in assay [4], 90.2; in assay [5] it was 13.5.

B2: YGR166W 276-289 (peptide)
chain: ELDPISPLKVPLTA
As for B2, the normalised SPOT signal, Boehringer light units (BLU); mean over the file's lines of this peptide in assay [1] is 39.4; in assay [2], 160; in assay [3], 42.4; in assay [4], 56.8; in assay [5], 46.

B3: YDR099W 164-177 (peptide)
chain: ELPPTHPIRLGLAL
Regarding B3, the normalised SPOT signal, Boehringer light units (BLU); mean over the file's lines of this peptide was 24.8 in assay [1]; 203 in assay [2]; 179 in assay [3]; 77.1 in assay [4]; 46.1 in assay [5].

B4: YER027C 53-66 (peptide)
chain: ELEPQHPLRHKSSL
Turning to B4, the normalised SPOT signal, Boehringer light units (BLU); mean over the file's lines of this peptide was determined as 38.4 in assay [1]; 333 in assay [2]; 109 in assay [3]; 65.2 in assay [4]; 60 in assay [5].

B5: YDR443C 81-94 (peptide)
chain: EHKPVSPDKIGTFT
Regarding B5, the normalised SPOT signal, Boehringer light units (BLU); mean over the file's lines of this peptide amounted to 59.1 in assay [1]; 181 in assay [2]; 60.4 in assay [3]; 58.8 in assay [4]; 21.4 in assay [5].

B6: YDR080W 597-610 (peptide)
chain: EIAPLIPKKPALRK
With B6, the normalised SPOT signal, Boehringer light units (BLU); mean over the file's lines of this peptide in assay [1] was found to be 80; in assay [2], 0; in assay [3] it was 5120; in assay [4], 110; in assay [5], 90.8.

B7: YCR088W 471-484 (peptide)
chain: EIAPSLPSRNSIPA
With B7, the normalised SPOT signal, Boehringer light units (BLU); mean over the file's lines of this peptide in assay [1] is 18700; in assay [2] it was 40900; in assay [3] it was 35400; in assay [4] it was 92.9; in assay [5] it was 51.6.

B8: YIL156W 528-541 (peptide)
chain: EIPPPLPPKIMVHS
In the case of B8, the normalised SPOT signal, Boehringer light units (BLU); mean over the file's lines of this peptide in assay [1] was 135; in assay [2] it was 14500; in assay [3], 41400; in assay [4], 121; in assay [5], 15.5.

B9: YKR024C 336-349 (peptide)
chain: EKFPKLPHKLVHML
On to B9, for which the normalised SPOT signal, Boehringer light units (BLU); mean over the file's lines of this peptide in assay [1] came out at 32.9; in assay [2] it was 139; in assay [3], 7910; in assay [4] it was 56.5; in assay [5] it was 83.5.

B10: YPR171W 144-157 (peptide)
chain: EKGPRMPSRGRPRP
In the case of B10, the normalised SPOT signal, Boehringer light units (BLU); mean over the file's lines of this peptide turned out to be 72.6 in assay [1]; 1840 in assay [2]; 5120 in assay [3]; 394 in assay [4]; 161 in assay [5].

B11: YCL014W 808-821 (peptide)
chain: EILPVKPTKKSSKK
Take B11: the normalised SPOT signal, Boehringer light units (BLU); mean over the file's lines of this peptide in assay [1] is 63.9; in assay [2], 34.7; in assay [3] it was 2720; in assay [4] it was 364; in assay [5] it was 21.3.

B12: YBL007C 619-632 (peptide)
chain: ELPPIKPPRPTSTT
On to B12, for which the normalised SPOT signal, Boehringer light units (BLU); mean over the file's lines of this peptide stood at 1900 in assay [1]; 43100 in assay [2]; 57000 in assay [3]; 54.9 in assay [4]; 90.2 in assay [5].

B13: YMR296C 278-291 (peptide)
chain: EKLPAIPRKFIVTE
For the molecule B13, the normalised SPOT signal, Boehringer light units (BLU); mean over the file's lines of this peptide in assay [1] worked out at 41.4; in assay [2], 208; in assay [3], 667; in assay [4], 26.8; in assay [5], 17.5.

B14: YDR444W 379-392 (peptide)
chain: EILPQAPAKKVFES
Regarding B14, the normalised SPOT signal, Boehringer light units (BLU); mean over the file's lines of this peptide was determined as 65.2 in assay [1]; 12.5 in assay [2]; 244 in assay [3]; 34.7 in assay [4]; 21.5 in assay [5].

B15: YLR343W 379-392 (peptide)
chain: EKLPETPDRSKSAS
As to B15, the normalised SPOT signal, Boehringer light units (BLU); mean over the file's lines of this peptide was found to be 67.1 in assay [1]; 5560 in assay [2]; 12200 in assay [3]; 69.3 in assay [4]; 69.2 in assay [5].
